Molecular target: T1, LRP6 (low-density lipoprotein receptor-related protein 6) (UniProt O75581 20-1370, limits assumed)
T1 sequence (looked up): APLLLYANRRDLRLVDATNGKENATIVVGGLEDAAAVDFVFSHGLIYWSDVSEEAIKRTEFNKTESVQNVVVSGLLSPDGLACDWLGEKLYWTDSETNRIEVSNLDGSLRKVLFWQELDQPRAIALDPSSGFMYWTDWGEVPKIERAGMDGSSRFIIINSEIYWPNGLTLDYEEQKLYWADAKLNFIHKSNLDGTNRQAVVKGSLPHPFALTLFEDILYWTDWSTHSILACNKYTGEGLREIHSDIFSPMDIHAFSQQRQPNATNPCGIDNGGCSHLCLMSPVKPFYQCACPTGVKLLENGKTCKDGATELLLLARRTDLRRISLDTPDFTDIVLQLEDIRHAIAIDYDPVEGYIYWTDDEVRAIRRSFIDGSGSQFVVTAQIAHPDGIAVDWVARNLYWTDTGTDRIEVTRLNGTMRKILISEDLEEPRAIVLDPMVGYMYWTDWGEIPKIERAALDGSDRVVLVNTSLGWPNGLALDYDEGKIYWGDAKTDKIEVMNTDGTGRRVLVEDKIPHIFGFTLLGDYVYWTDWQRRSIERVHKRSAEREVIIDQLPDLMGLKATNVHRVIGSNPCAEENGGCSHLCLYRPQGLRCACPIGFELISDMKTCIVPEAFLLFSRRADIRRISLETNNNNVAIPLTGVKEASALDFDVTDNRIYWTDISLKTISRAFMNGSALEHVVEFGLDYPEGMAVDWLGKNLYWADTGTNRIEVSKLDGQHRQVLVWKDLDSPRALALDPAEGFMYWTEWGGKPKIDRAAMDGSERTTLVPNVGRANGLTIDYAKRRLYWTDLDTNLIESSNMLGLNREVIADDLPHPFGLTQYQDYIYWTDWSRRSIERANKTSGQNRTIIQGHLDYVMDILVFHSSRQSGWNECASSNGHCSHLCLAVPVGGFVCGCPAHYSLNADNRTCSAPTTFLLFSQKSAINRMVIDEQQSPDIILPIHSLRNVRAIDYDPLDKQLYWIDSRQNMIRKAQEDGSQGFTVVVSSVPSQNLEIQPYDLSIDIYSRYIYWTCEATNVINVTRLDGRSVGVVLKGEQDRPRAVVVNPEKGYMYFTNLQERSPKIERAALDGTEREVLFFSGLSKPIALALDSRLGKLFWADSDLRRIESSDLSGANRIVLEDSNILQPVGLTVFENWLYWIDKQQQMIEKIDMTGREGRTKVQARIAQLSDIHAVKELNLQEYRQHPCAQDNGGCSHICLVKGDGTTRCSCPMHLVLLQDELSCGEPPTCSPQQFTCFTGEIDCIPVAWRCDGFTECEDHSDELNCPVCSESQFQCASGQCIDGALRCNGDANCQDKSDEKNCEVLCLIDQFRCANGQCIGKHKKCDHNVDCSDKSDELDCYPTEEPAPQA
Experiment: cell-based or functional assay

Row | Binder | TOPFLASH % Wnt Maxima [% Wnt Maxima]
1 | CM0011 (FZD Diabody-Fc-LRP Diabody; paratopes 5019; 2539, 2542) (bispecific antibody) chain 1: MNLLLILTFVAAAVAEFEVQLVESGGGLVQPGGSLRLSCAASGFNIGSSSIHWVRQAPGKGLEWVASIYSAFASTSYADSVKGRFTISADTSKNTAYLQMNSLRAEDTAVYYCARYHFPFGFALDYWGQGTLVTVSSGGGGSDIQMTQSPSSLSASVGDRVTITCRASQSVSSAVAWYQQKPGKAPKLLIYSASSLYSGVPSRFSGSRSGTDFTLTISSLQPEDFATYYCQQGVYLFTFGQGTKVEIKLEDKTHTKVEPKSSDKTHNCPPCPAPELLGGPSVFLFPPKPKDTLMISRTPEVTCVVVDVSHEDPEVKFNWYVDGVEVHNAKTKPREEQYNSTYRVVSVLTVLHQDWLNGKEYKCKVSNKALPAPIEKTISKAKGQPREPQVYTLPPIRELMTSNQVSLSCAVKGFYPSDIAVEWESNGQPENNYKTTPPVLDSDGSFFLVSKLTVDKSRWQQGNVFSCSVMHEALHNHYTQKSLSLSPGKSGSETPGTSESATPESGGGEVQLVESGGGLVQPGGSLRLSCAASGFNISSYYIHWVRQAPGKGLEWVASIYSSYGYTSYADSVKGRFTISADTSKNTAYLQMNSLRAEDTAVYYCARTVRGSKKPYFSGWAMDYWGQGTLVTVSSGGGGSDIQMTQSPSSLSASVGDRVTITCRASQSVSSAVAWYQQKPGKAPKLLIYSASSLYSGVPSRFSGSRSGTDFTLTISSLQPEDFATYYCQQYSWGPFTFGQGTKVEIK chain 2: MNLLLILTFVAAAVAEFEVQLVESGGGLVQPGGSLRLSCAASGFNIGSSSIHWVRQAPGKGLEWVASIYSAFASTSYADSVKGRFTISADTSKNTAYLQMNSLRAEDTAVYYCARYHFPFGFALDYWGQGTLVTVSSGGGGSDIQMTQSPSSLSASVGDRVTITCRASQSVSSAVAWYQQKPGKAPKLLIYSASSLYSGVPSRFSGSRSGTDFTLTISSLQPEDFATYYCQQGVYLFTFGQGTKVEIKLEDKTHTKVEPKTSDKTHTCPPCPAPELLGGPSVFLFPPKPKDTLMISRTPEVTCVVVDVSHEDPEVKFNWYVDGVEVHNAKTKPREEQYNSTYRVVSVLTVLHQDWLNGKEYKCKVSNKALPAPIEKTISKAKGQPREPMVFDLPPSREEMTKNQVSLWCMVKGFYPSDIAVEWESNGQPENNYKTTPPVLDSDGSFFLYSKLTVDKSRWQQGNVFSCSVMHEALHNHYTQKSLSLSPGKSGSETPGTSESATPESGGGEVQLVESGGGLVQPGGSLRLSCAASGFNISYSSIHWVRQAPGKGLEWVAYISSYYGYTYYADSVKGRFTISADTSKNTAYLQMNSLRAEDTAVYYCARAHYFPWAGAMDYWGQGTLVTVSSGGGGSDIQMTQSPSSLSASVGDRVTITCRASQSVSSAVAWYQQKPGKAPKLLIYSASSLYSGVPSRFSGSRSGTDFTLTISSLQPEDFATYYCQQYYWPITFGQGTKVEIK | 63
2 | CM0126 (FZD Diabody-Fc-LRP Diabody; paratopes 5016; 2539, 2542) (bispecific antibody) chain 1: MNLLLILTFVAAAVAEFEVQLVESGGGLVQPGGSLRLSCAASGFNIHSSSIHWVRQAPGKGLEWVAATYSSFGSITYADSVKGRFTISADTSKNTAYLQMNSLRAEDTAVYYCARYHHPFGYALDYWGQGTLVTVSSGGGGSDIQMTQSPSSLSASVGDRVTITCRASQSVSSAVAWYQQKPGKAPKLLIYSASSLYSGVPSRFSGSRSGTDFTLTISSLQPEDFATYYCQQGVYLFTFGQGTKVEIKLEDKTHTKVEPKSSDKTHNCPPCPAPELLGGPSVFLFPPKPKDTLMISRTPEVTCVVVDVSHEDPEVKFNWYVDGVEVHNAKTKPREEQYNSTYRVVSVLTVLHQDWLNGKEYKCKVSNKALPAPIEKTISKAKGQPREPQVYTLPPIRELMTSNQVSLSCAVKGFYPSDIAVEWESNGQPENNYKTTPPVLDSDGSFFLVSKLTVDKSRWQQGNVFSCSVMHEALHNHYTQKSLSLSPGKSGSETPGTSESATPESGGGEVQLVESGGGLVQPGGSLRLSCAASGFNISSYYIHWVRQAPGKGLEWVASIYSSYGYTSYADSVKGRFTISADTSKNTAYLQMNSLRAEDTAVYYCARTVRGSKKPYFSGWAMDYWGQGTLVTVSSGGGGSDIQMTQSPSSLSASVGDRVTITCRASQSVSSAVAWYQQKPGKAPKLLIYSASSLYSGVPSRFSGSRSGTDFTLTISSLQPEDFATYYCQQYSWGPFTFGQGTKVEIK chain 2: MNLLLILTFVAAAVAEFEVQLVESGGGLVQPGGSLRLSCAASGFNIHSSSIHWVRQAPGKGLEWVAATYSSFGSITYADSVKGRFTISADTSKNTAYLQMNSLRAEDTAVYYCARYHHPFGYALDYWGQGTLVTVSSGGGGSDIQMTQSPSSLSASVGDRVTITCRASQSVSSAVAWYQQKPGKAPKLLIYSASSLYSGVPSRFSGSRSGTDFTLTISSLQPEDFATYYCQQGVYLFTFGQGTKVEIKLEDKTHTKVEPKTSDKTHTCPPCPAPELLGGPSVFLFPPKPKDTLMISRTPEVTCVVVDVSHEDPEVKFNWYVDGVEVHNAKTKPREEQYNSTYRVVSVLTVLHQDWLNGKEYKCKVSNKALPAPIEKTISKAKGQPREPMVFDLPPSREEMTKNQVSLWCMVKGFYPSDIAVEWESNGQPENNYKTTPPVLDSDGSFFLYSKLTVDKSRWQQGNVFSCSVMHEALHNHYTQKSLSLSPGKSGSETPGTSESATPESGGGEVQLVESGGGLVQPGGSLRLSCAASGFNISYSSIHWVRQAPGKGLEWVAYISSYYGYTYYADSVKGRFTISADTSKNTAYLQMNSLRAEDTAVYYCARAHYFPWAGAMDYWGQGTLVTVSSGGGGSDIQMTQSPSSLSASVGDRVTITCRASQSVSSAVAWYQQKPGKAPKLLIYSASSLYSGVPSRFSGSRSGTDFTLTISSLQPEDFATYYCQQYYWPITFGQGTKVEIK | 52
3 | CT0001 (FZD IgG-LRP Diabody; paratopes 5016; 2539, 2542) (bispecific antibody) heavy 1: EVQLVESGGGLVQPGGSLRLSCAASGFNIHSSSIHWVRQAPGKGLEWVAATYSSFGSITYADSVKGRFTISADTSKNTAYLQMNSLRAEDTAVYYCARYHHPFGYALDYWGQGTLVTVSSASTKGPSVFPLAPSSKSTSGGTAALGCLVKDYFPEPVTVSWNSGALTSGVHTFPAVLQSSGLYSLSSVVTVPSSSLGTQTYICNVNHKPSNTKVDKKVEPKSCDKTHTCPPCPAPELLGGPSVFLFPPKPKDTLMISRTPEVTCVVVDVSHEDPEVKFNWYVDGVEVHNAKTKPREEQYNSTYRVVSVLTVLHQDWLNGKEYKCKVSNKALPAPIEKTISKAKGQPREPQVYTLPPIRELMTSNQVSLSCAVKGFYPSDIAVEWESNGQPENNYKTTPPVLDSDGSFFLVSKLTVDKSRWQQGNVFSCSVMHEALHNHYTQKSLSLSPGKSGSETPGTSESATPESGGGEVQLVESGGGLVQPGGSLRLSCAASGFNISSYYIHWVRQAPGKGLEWVASIYSSYGYTSYADSVKGRFTISADTSKNTAYLQMNSLRAEDTAVYYCARTVRGSKKPYFSGWAMDYWGQGTLVTVSSGGGGSDIQMTQSPSSLSASVGDRVTITCRASQSVSSAVAWYQQKPGKAPKLLIYSASSLYSGVPSRFSGSRSGTDFTLTISSLQPEDFATYYCQQYSWGPFTFGQGTKVEIK heavy 2: EVQLVESGGGLVQPGGSLRLSCAASGFNIHSSSIHWVRQAPGKGLEWVAATYSSFGSITYADSVKGRFTISADTSKNTAYLQMNSLRAEDTAVYYCARYHHPFGYALDYWGQGTLVTVSSASTKGPSVFPLAPSSKSTSGGTAALGCLVKDYFPEPVTVSWNSGALTSGVHTFPAVLQSSGLYSLSSVVTVPSSSLGTQTYICNVNHKPSNTKVDKKVEPKSCDKTHTCPPCPAPELLGGPSVFLFPPKPKDTLMISRTPEVTCVVVDVSHEDPEVKFNWYVDGVEVHNAKTKPREEQYNSTYRVVSVLTVLHQDWLNGKEYKCKVSNKALPAPIEKTISKAKGQPREPMVFDLPPSREEMTKNQVSLWCMVKGFYPSDIAVEWESNGQPENNYKTTPPVLDSDGSFFLYSKLTVDKSRWQQGNVFSCSVMHEALHNHYTQKSLSLSPGKSGSETPGTSESATPESGGGEVQLVESGGGLVQPGGSLRLSCAASGFNISYSSIHWVRQAPGKGLEWVAYISSYYGYTYYADSVKGRFTISADTSKNTAYLQMNSLRAEDTAVYYCARAHYFPWAGAMDYWGQGTLVTVSSGGGGSDIQMTQSPSSLSASVGDRVTITCRASQSVSSAVAWYQQKPGKAPKLLIYSASSLYSGVPSRFSGSRSGTDFTLTISSLQPEDFATYYCQQYYWPITFGQGTKVEIK light: DIQMTQSPSSLSASVGDRVTITCRASQSVSSAVAWYQQKPGKAPKLLIYSASSLYSGVPSRFSGSRSGTDFTLTISSLQPEDFATYYCQQGVYLFTFGQGTKVEIKRTVAAPSVFIFPPSDEQLKSGTASVVCLLNNFYPREAKVQWKVDNALQSGNSQESVTEQDSKDSTYSLSSTLTLSKADYEKHKVYACEVTHQGLSSPVTKSFNRGEC | 57

Source: patent US20260250398A1 (ANTLERA THERAPEUTICS, published 2026)
